Reference: patent publication US20140363428A1 (Chugai, published 2014)

Target: T1, soluble human FcRn (human, UniProt P55899 24-297; P61769 21-119)
T1 construct: Heterodimer of alpha chain and beta2-microglobulin; also called hFcRn
Assay: SPR (Biacore), pH 7.0

| Kd [µM] | Binder |
| --- | --- |
| 0.15 | Fv-4-F939 (antibody, human IgG1, kappa) heavy: QVQLQESGPGLVKPSETLSLTCAVSGHSISHDHAWSWVRQPPGEGLEWIGFISYSGITNYNPSLQGRVTISRDNSKNTLYLQMNSLRAEDTAVYYCARSLARTTAMDYWGEGTLVTVSSASTKGPSVFPLAPSSKSTSGGTAALGCLVKDYFPEPVTVSWNSGALTSGVHTFPAVLQSSGLYSLSSVVTVPSSSLGTQTYICNVNHKPSNTKVDKKVEPKSCDKTHTCPPCPAPELRGGPKVFLFPPKPKDTLYISRTPEVTCVVVDVSHEDPEVKFNWYVDGVEVHNAKTKPREEQYNSTYRVVSVLTVLHQDWLNGKEYKCKVSNKALPAPIEKTISKAKGQPREPQVYTLPPSRDELTKNQVSLTCLVKGFYPSDIAVEWESNGQPENNYKTTPPVLDSDGSFFLYSKLTVDKSRWQQGNVFSCSVMHEALHYHVTQKSLSLSP light: DIQMTQSPSSLSASVGDSVTITCQASTDISSHLNWYQQKPGKAPELLIYYGSHLLSGVPSRFSGSGSGTDFTFTISSLEAEDAATYYCGQGNRLPYTFGQGTKVEIERTVAAPSVFIFPPSDEQLKSGTASVVCLLNNFYPREAKVQWKVDNALQSGNSQESVTEQDSKDSTYSLSSTLTLSKADYEKHKVYACEVTHQGLSSPVTKSFNRGEC |
| 0.17 | Fv-4-F1269 (antibody) heavy: QVQLQESGPGLVKPSETLSLTCAVSGHSISHDHAWSWVRQPPGEGLEWIGFISYSGITNYNPSLQGRVTISRDNSKNTLYLQMNSLRAEDTAVYYCARSLARTTAMDYWGEGTLVTVSSASTKGPSVFPLAPSSKSTSGGTAALGCLVKDYFPEPVTVSWNSGALTSGVHTFPAVLQSSGLYSLSSVVTVPSSSLGTQTYICNVNHKPSNTKVDKKVEPKSCDKTHTCPPCPAPELRGGPKVFLFPPKPKDTLYISRTPEVTCVVVDVSHEDPEVKFNWYVDGVEVHNAKTKPREEQYNSTYRVVSVLTVLHQDWLNGKEYKCKVSNKALPAPIEKTISKAKGQPREPQVYTLPPSRDELTKNQVSLTCLVKGFYPSDIAVEWESNGQPENNYKTTPPVLDSDGSFFLYSKLTVDKSRWQQGNVFSCSVMHEALDYHVTKKDLSLSP light: DIQMTQSPSSLSASVGDSVTITCQASTDISSHLNWYQQKPGKAPELLIYYGSHLLSGVPSRFSGSGSGTDFTFTISSLEAEDAATYYCGQGNRLPYTFGQGTKVEIERTVAAPSVFIFPPSDEQLKSGTASVVCLLNNFYPREAKVQWKVDNALQSGNSQESVTEQDSKDSTYSLSSTLTLSKADYEKHKVYACEVTHQGLSSPVTKSFNRGEC |
| 0.15 | Fv-4-F1291 (antibody, human IgG1, kappa) heavy: QVQLQESGPGLVKPSETLSLTCAVSGHSISHDHAWSWVRQPPGEGLEWIGFISYSGITNYNPSLQGRVTISRDNSKNTLYLQMNSLRAEDTAVYYCARSLARTTAMDYWGEGTLVTVSSASTKGPSVFPLAPSSKSTSGGTAALGCLVKDYFPEPVTVSWNSGALTSGVHTFPAVLQSSGLYSLSSVVTVPSSSLGTQTYICNVNHKPSNTKVDKKVEPKSCDKTHTCPPCPAPELRGGPKVFLFPPKPKDTLYISRTPEVTCVVVDVSHEDPEVKFNWYVDGVEVHNAKTKPREEQYNSTYRVVSVLTVLHQDWLNGKEYKCKVSNKALPAPIEKTISKAKGQPREPQVYTLPPSRDELTKNQVSLTCLVKGFYPSDIAVEWESNGQPENNYKTTPPVLDSDGSFFLYSKLTVDKSRWQQGNVFSCSVMHEALDYHVTQKSLSLSP light: DIQMTQSPSSLSASVGDSVTITCQASTDISSHLNWYQQKPGKAPELLIYYGSHLLSGVPSRFSGSGSGTDFTFTISSLEAEDAATYYCGQGNRLPYTFGQGTKVEIERTVAAPSVFIFPPSDEQLKSGTASVVCLLNNFYPREAKVQWKVDNALQSGNSQESVTEQDSKDSTYSLSSTLTLSKADYEKHKVYACEVTHQGLSSPVTKSFNRGEC |
| 0.2 | Fv-4-F1268 (antibody) heavy: QVQLQESGPGLVKPSETLSLTCAVSGHSISHDHAWSWVRQPPGEGLEWIGFISYSGITNYNPSLQGRVTISRDNSKNTLYLQMNSLRAEDTAVYYCARSLARTTAMDYWGEGTLVTVSSASTKGPSVFPLAPSSKSTSGGTAALGCLVKDYFPEPVTVSWNSGALTSGVHTFPAVLQSSGLYSLSSVVTVPSSSLGTQTYICNVNHKPSNTKVDKKVEPKSCDKTHTCPPCPAPELRGGPKVFLFPPKPKDTLYISRTPEVTCVVVDVSHEDPEVKFNWYVDGVEVHNAKTKPREEQYNSTYRVVSVLTVLHQDWLNGKEYKCKVSNKALPAPIEKTISKAKGQPREPQVYTLPPSRDELTKNQVSLTCLVKGFYPSDIAVEWESNGQPENNYKTTPPVLDSDGSFFLYSKLTVDKSRWQQGNVFSCSVMHEALDYHVTRKELSLSP light: DIQMTQSPSSLSASVGDSVTITCQASTDISSHLNWYQQKPGKAPELLIYYGSHLLSGVPSRFSGSGSGTDFTFTISSLEAEDAATYYCGQGNRLPYTFGQGTKVEIERTVAAPSVFIFPPSDEQLKSGTASVVCLLNNFYPREAKVQWKVDNALQSGNSQESVTEQDSKDSTYSLSSTLTLSKADYEKHKVYACEVTHQGLSSPVTKSFNRGEC |
| 0.082 | Fv-4-F1245 (antibody, L235R/S239K/M252Y/S254T/T256E/N434Y/Y436V/Q438R/S440E (EU)) heavy: QVQLQESGPGLVKPSETLSLTCAVSGHSISHDHAWSWVRQPPGEGLEWIGFISYSGITNYNPSLQGRVTISRDNSKNTLYLQMNSLRAEDTAVYYCARSLARTTAMDYWGEGTLVTVSSASTKGPSVFPLAPSSKSTSGGTAALGCLVKDYFPEPVTVSWNSGALTSGVHTFPAVLQSSGLYSLSSVVTVPSSSLGTQTYICNVNHKPSNTKVDKKVEPKSCDKTHTCPPCPAPELRGGPKVFLFPPKPKDTLYITREPEVTCVVVDVSHEDPEVKFNWYVDGVEVHNAKTKPREEQYNSTYRVVSVLTVLHQDWLNGKEYKCKVSNKALPAPIEKTISKAKGQPREPQVYTLPPSRDELTKNQVSLTCLVKGFYPSDIAVEWESNGQPENNYKTTPPVLDSDGSFFLYSKLTVDKSRWQQGNVFSCSVMHEALHYHVTRKELSLSP light: DIQMTQSPSSLSASVGDSVTITCQASTDISSHLNWYQQKPGKAPELLIYYGSHLLSGVPSRFSGSGSGTDFTFTISSLEAEDAATYYCGQGNRLPYTFGQGTKVEIERTVAAPSVFIFPPSDEQLKSGTASVVCLLNNFYPREAKVQWKVDNALQSGNSQESVTEQDSKDSTYSLSSTLTLSKADYEKHKVYACEVTHQGLSSPVTKSFNRGEC |
| 0.1 | Fv-4-F1321 (antibody) heavy: QVQLQESGPGLVKPSETLSLTCAVSGHSISHDHAWSWVRQPPGEGLEWIGFISYSGITNYNPSLQGRVTISRDNSKNTLYLQMNSLRAEDTAVYYCARSLARTTAMDYWGEGTLVTVSSASTKGPSVFPLAPSSKSTSGGTAALGCLVKDYFPEPVTVSWNSGALTSGVHTFPAVLQSSGLYSLSSVVTVPSSSLGTQTYICNVNHKPSNTKVDKKVEPKSCDKTHTCPPCPAPELRGGPKVFLFPPKPKDTLYITRTPEVTCVVVDVSHEDPEVKFNWYVDGVEVHNAKTKPREEQYNSTYRVVSVLTVLHQDWLNGKEYKCKVSNKALPAPIEKTISKAKGQPREPQVYTLPPSRDELTKNQVSLTCLVKGFYPSDIAVEWESNGQPENNYKTTPPVLDSDGSFFLYSKLTVDKSRWQQGNVFSCSVMHEALHYHVTKKELSLSP light: DIQMTQSPSSLSASVGDSVTITCQASTDISSHLNWYQQKPGKAPELLIYYGSHLLSGVPSRFSGSGSGTDFTFTISSLEAEDAATYYCGQGNRLPYTFGQGTKVEIERTVAAPSVFIFPPSDEQLKSGTASVVCLLNNFYPREAKVQWKVDNALQSGNSQESVTEQDSKDSTYSLSSTLTLSKADYEKHKVYACEVTHQGLSSPVTKSFNRGEC |
| 0.13 | Fv-4-F1243 (antibody, L235R/S239K/M252Y/S254T/N434Y/Y436V/Q438R/S440E (EU)) heavy: QVQLQESGPGLVKPSETLSLTCAVSGHSISHDHAWSWVRQPPGEGLEWIGFISYSGITNYNPSLQGRVTISRDNSKNTLYLQMNSLRAEDTAVYYCARSLARTTAMDYWGEGTLVTVSSASTKGPSVFPLAPSSKSTSGGTAALGCLVKDYFPEPVTVSWNSGALTSGVHTFPAVLQSSGLYSLSSVVTVPSSSLGTQTYICNVNHKPSNTKVDKKVEPKSCDKTHTCPPCPAPELRGGPKVFLFPPKPKDTLYITRTPEVTCVVVDVSHEDPEVKFNWYVDGVEVHNAKTKPREEQYNSTYRVVSVLTVLHQDWLNGKEYKCKVSNKALPAPIEKTISKAKGQPREPQVYTLPPSRDELTKNQVSLTCLVKGFYPSDIAVEWESNGQPENNYKTTPPVLDSDGSFFLYSKLTVDKSRWQQGNVFSCSVMHEALHYHVTRKELSLSP light: DIQMTQSPSSLSASVGDSVTITCQASTDISSHLNWYQQKPGKAPELLIYYGSHLLSGVPSRFSGSGSGTDFTFTISSLEAEDAATYYCGQGNRLPYTFGQGTKVEIERTVAAPSVFIFPPSDEQLKSGTASVVCLLNNFYPREAKVQWKVDNALQSGNSQESVTEQDSKDSTYSLSSTLTLSKADYEKHKVYACEVTHQGLSSPVTKSFNRGEC |

Target: T1, soluble human FcRn
Assay: SPR (Biacore), pH 6.0

| Kd [µM] | Binder |
| --- | --- |
| 0.27 | Fv-4-F1392 (antibody, human IgG1, kappa) heavy: QVQLQESGPGLVKPSETLSLTCAVSGHSISHDHAWSWVRQPPGEGLEWIGFISYSGITNYNPSLQGRVTISRDNSKNTLYLQMNSLRAEDTAVYYCARSLARTTAMDYWGEGTLVTVSSASTKGPSVFPLAPSSKSTSGGTAALGCLVKDYFPEPVTVSWNSGALTSGVHTFPAVLQSSGLYSLSSVVTVPSSSLGTQTYICNVNHKPSNTKVDKKVEPKSCDKTHTCPPCPAPELLGGPSVFLFPPKPKDTLMISRTPEVTCVVVDVSHEDPEVKFNWYVDGVEVHNAKTKPREEQYNSTYRVVSVLTVLHQDWLNGKEYKCKVSNKALPAPIEKTISKAKGQPREPQVYTLPPSRDELTKNQVSLTCLVKGFYPSDIAVEWESNGQPENNYKTTPPVLDSDGSFFLYSKLTVDKSRWQQGNVFSCSVLHEALHSHKTQKSLSLSP light: DIQMTQSPSSLSASVGDSVTITCQASTDISSHLNWYQQKPGKAPELLIYYGSHLLSGVPSRFSGSGSGTDFTFTISSLEAEDAATYYCGQGNRLPYTFGQGTKVEIERTVAAPSVFIFPPSDEQLKSGTASVVCLLNNFYPREAKVQWKVDNALQSGNSQESVTEQDSKDSTYSLSSTLTLSKADYEKHKVYACEVTHQGLSSPVTKSFNRGEC |
| 0.42 | Fv-4-F1391 (antibody, human IgG1, kappa) heavy: QVQLQESGPGLVKPSETLSLTCAVSGHSISHDHAWSWVRQPPGEGLEWIGFISYSGITNYNPSLQGRVTISRDNSKNTLYLQMNSLRAEDTAVYYCARSLARTTAMDYWGEGTLVTVSSASTKGPSVFPLAPSSKSTSGGTAALGCLVKDYFPEPVTVSWNSGALTSGVHTFPAVLQSSGLYSLSSVVTVPSSSLGTQTYICNVNHKPSNTKVDKKVEPKSCDKTHTCPPCPAPELLGGPSVFLFPPKPKDTLMISRTPEVTCVVVDVSHEDPEVKFNWYVDGVEVHNAKTKPREEQYNSTYRVVSVLTVLHQDWLNGKEYKCKVSNKALPAPIEKTISKAKGQPREPQVYTLPPSRDELTKNQVSLTCLVKGFYPSDIAVEWESNGQPENNYKTTPPVLDSDGSFFLYSKLTVDKSRWQQGNVFSCSVLHEALHSHNTQKSLSLSP light: DIQMTQSPSSLSASVGDSVTITCQASTDISSHLNWYQQKPGKAPELLIYYGSHLLSGVPSRFSGSGSGTDFTFTISSLEAEDAATYYCGQGNRLPYTFGQGTKVEIERTVAAPSVFIFPPSDEQLKSGTASVVCLLNNFYPREAKVQWKVDNALQSGNSQESVTEQDSKDSTYSLSSTLTLSKADYEKHKVYACEVTHQGLSSPVTKSFNRGEC |
